{"source": "patent US20190330313A1", "about": "(HANX BIOPHARMACEUTICS, published 2019)", "binders": {"B1": {"name": "humanized H8L2 antibody (IgG-like antibody H8L2 against PD-1) (antibody)", "heavy": "EVQLVQSGGGLVQPGGSLKLSCAASGFTFSSYGMSWVRQAPGKGLDWVATISGGGRDTYYPDSVKGRFTISRDNSKNNLYLQMNSLRAEDTALYYCARQKGEAWFAYWGQGTLVTVSSASTKGPSVFPLAPCSRSTSESTAALGCLVKDYFPEPVTVSWNSGALTSGVHTFPAVLQSSGLYSLSSVVTVPSSSLGTKTYTCNVDHKPSNTKVDKRVESKYGPPCPPCPAPEFLGGPSVFLFPPKPKDTLMITRTPEVTCVVVDVSQEDPEVQFNWYVDGVEVHNAKTKPREEQFNSTYRVVSVLTPLHQDWLNGKEYKCKVSNKGLPSSIEKTISKAKGQPREPQVYTLPPSQEEMTKNQVSLTCLVKGFYPSDIAVEWESNGQPENNYKTTPPVLDSDGSFFLYSRLTVDKSRWQEGNVFSCSVMHEALHAHYTQKSLSLSLGK", "light": "not shown", "notes": "Expressed in 293 cells and purified on protein A; also called 18A10 H8L2"}}, "key": {"[1]": {"target": "T1, PD-1-his antigen (UniProt Q15116 25-167, limits assumed)", "T1 construct": "not shown: his tag", "T1 sequence (Q15116 25-167 limits assumed)": "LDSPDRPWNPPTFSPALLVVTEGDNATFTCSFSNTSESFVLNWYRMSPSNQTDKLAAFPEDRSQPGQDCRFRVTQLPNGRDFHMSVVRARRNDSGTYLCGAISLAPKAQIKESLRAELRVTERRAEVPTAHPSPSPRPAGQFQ", "experiment": "ELISA, PD-1-his coated at 0.25 µg/ml", "protocol": "An ELISA plate was coated with PD-1-his antigen in a concentration of 0.25 μg/ml (100 μl per well) by incubation at 4° C. overnight.\nThe ELISA plate coated with the PD-1-his antigen was blocked with 1% BSA in the PBS buffer at 37° C. for 2 hours and washed with 1×PBST buffer containing 1% Tween-20 for three times, with gently patting to dryness."}, "[2]": {"target": "T2, PD-1-hIgGFc antigen (human, UniProt Q15116 25-167, limits assumed)", "T2 construct": "not shown: human IgG Fc (hIgGFc)", "T2 sequence (Q15116 25-167 limits assumed)": "as above", "experiment": "competitive ELISA, PD-1-hIgGFc coated, competitor PDL2-his tag 0.5 µg/ml", "protocol": "A 96-well ELISA plate was coated with PD-1-hIgGFc antigen in a concentration of 1.0 μg/ml (100 μl per well) by incubation at 4° C. overnight.\nAfter the 96-well ELISA plate was washed with the PBST buffer for five times and gently patted to dryness, HRP-conjugated monoclonal mouse anti-his tag as a secondary antibody in 1:750 dilution (50 μl per well) was added for incubation at 37° C. for 1 hour."}, "[3]": {"target": "T2, PD-1-hIgGFc antigen", "experiment": "competitive ELISA, PD-1-hIgGFc coated, competitor PDL1-mIgG2aFc 0.3 µg/ml", "protocol": "A 96-well ELISA plate was coated with PD-1-hIgGFc antigen in a concentration of 0.5 μg/ml (50 μl per well) by incubation at 4° C. overnight."}}}
{"binder": "B1", "values": [{"measurement": "EC50", "setting": "[1]", "value": 0.04, "unit": "nM"}, {"measurement": "EC50", "setting": "[2]", "value": 1.83, "unit": "nM"}, {"measurement": "EC50", "setting": "[3]", "value": 0.474, "unit": "nM"}]}
